Reference: patent CN116143933A (BEIJING ZHIREN MEIBO BIOTECHNOLOGY CO LTD, dated 2023)

B1: S5A10h1Fab+S5B8h2ScFv (bispecific antibody, human IgG1, kappa)
chain: DIVMTQTPLSLPVTPGEPASISCRSSQSLVHSNGNTYLHWYLQKPGQSPQLLIYKVSNRFSGVPDRFSGSGSGTDFTLKISRVEAEDVGVYYCSQSTHVPLTFGQGTKLEIKGGGGSGGGGSGGGGSQVQLVQSGAEVKKPGASVKVSCKASGYAFTNSWMHWVRQAPGQGLEWMGEIHPQSGRTNYNEKFKGRVTMTRDTSTSTVYMELSSLRSEDTAVYYCARDLLQFGNQYYYAMDYWGQGTLVTVSSEPKSSDKTHTCPPCPAPELLGGPSVFLFPPKPKDTLMISRTPEVTCVVVDVSQEDPEVQFNWYVDGVEVHNAKTKPREEQYNSTYRVVSVLTVLHQDWLNGKEYKCKVSNKALPAPIEKTISKAKGQPREPQVCTLPPSQEEMTKNQVSLSCAVKGFYPSDIAVEWESNGQPENNYKTTPPVLDSDGSFFLVSKLTVDKSRWQEGNVFSCSVMHEALHNHYTQKSLSLSPGK
heavy: not shown
light: DIQMTQSPSSLSASVGDRVTITCRASENIYSYLAWYQQKPGKAPKLLIYNAKTLAEGVPSRFSGSGSGTDFTLTISSLQPEDFATYYCQHHYGTPYTFGQGTKLEIKRTVAAPSVFIFPPSDEQLKSGTASVVCLLNNFYPREAKVQWKVDNALQSGNSQESVTEQDSKDSTYSLSSTLTLSKADYEKHKVYACEVTHQGLSSPVTKSFNRGEC
notes: Fab-FcK/scFv-FcH knob-into-hole format, three chains
B2: S5A10h1cross+S5B8h2 (bispecific antibody, human IgG1, kappa)
heavy 1: QVQLVQSGAEVKKPGASVKVSCKASGYAFTNSWMHWVRQAPGQGLEWMGEIHPQSGRTNYNEKFKGRVTMTRDTSTSTVYMELSSLRSEDTAVYYCARDLLQFGNQYYYAMDYWGQGTLVTVSSASTKGPSVFPLAPSSKSTSEGTAALGCLVKDYFPEPVTVSWNSGALTSGVHTFPAVLQSSGLYSLSSVVTVPSSSLGTQTYICNVDHKPSNTKVDKTVEPKSCDKTHTCPPCPAPELLGGPSVFLFPPKPKDTLMISRTPEVTCVVVDVSQEDPEVQFNWYVDGVEVHNAKTKPREEQYNSTYRVVSVLTVLHQDWLNGKEYKCKVSNKALPAPIEKTISKAKGQPREPQVCTLPPSQEEMTKNQVSLSCAVKGFYPSDIAVEWESNGQPENNYKTTPPVLDSDGSFFLVSKLTVDKSRWQEGNVFSCSVMHEALHNHYTQKSLSLSPGK
light 1: DIVMTQTPLSLPVTPGEPASISCRSSQSLVHSNGNTYLHWYLQKPGQSPQLLIYKVSNRFSGVPDRFSGSGSGTDFTLKISRVEAEDVGVYYCSQSTHVPLTFGQGTKLEIKRTVAAPSVFIFPPSDEQLKSGTASVVCLLNNFYPREAKVQWKVDNALQSGNSQESVTEQDSKDSTYSLSSTLTLSKADYEKHKVYACEVTHQGLSSPVTKSFNRGEC
heavy 2: not shown
light 2: DIQMTQSPSSLSASVGDRVTITCRASENIYSYLAWYQQKPGKAPKLLIYNAKTLAEGVPSRFSGSGSGTDFTLTISSLQPEDFATYYCQHHYGTPYTFGQGTKLEIKSSASTKGPSVFPLAPSSKSTSGGTAALGCLVKDYFPEPVTVSWNSGALTSGVHTFPAVLQSSGLYSLSSVVTVPSSSLGTQTYICNVNHKPSNTKVDKRVEPKSC
notes: Knob-into-hole plus CrossMab format, four chains
B3: S5B8h2 (antibody, IgG1, V domains shown)
VH: QVQLVQSGAEVKKPGASVKVSCKASGYAFTNSWMHWVRQAPGQGLEWMGEIHPQSGRTNYNEKFKGRVTMTRDTSTSTVYMELSSLRSEDTAVYYCARDLLQFGNQYYYAMDYWGQGTLVTVSS
VL: DIVMTQTPLSLPVTPGEPASISCRSSQSLVHSNGNTYLHWYLQKPGQSPQLLIYKVSNRFSGVPDRFSGSGSGTDFTLKISRVEAEDVGVYYCSQSTHVPLTFGQGTKLEIK
notes: Made as a whole antibody of the IgG1 subtype; only variable domains are tied to it; also called 单克隆抗体S5B8h2
B4: S5A10h1 (antibody, V domains shown)
VH: QVQLVQSGAEVKKPGSSVKVSCKASDYPFISYTIHWVRQAPGQGLEWMGYINPSNGYTNYNQKFKDRVTITADKSTSTAYMELSSLRSEDTAVYYCARKYGNFYAMDYWGQGTLVTVSS
VL: DIQMTQSPSSLSASVGDRVTITCRASENIYSYLAWYQQKPGKAPKLLIYNAKTLAEGVPSRFSGSGSGTDFTLTISSLQPEDFATYYCQHHYGTPYTFGQGTKLEIK
notes: Made as a whole antibody of the IgG1 subtype; only variable domains are tied to it; also called 单克隆抗体S5A10h1

What follows are binders tested against T1, 食蟹猴CD38胞外区-His (mfCD38-His) (cynomolgus monkey (Macaca fascicularis), UniProt Q5VAN0 44-301) (assay: ELISA, mfCD38-His coated at 1.5 μg/ml, HRP mouse anti-human IgG).
T1 construct: Recombinant, expressed in HEK293 cells; not shown: His tag at the C-terminus

| Binder | binding result |
| --- | --- |
| B1 | binds |
| B2 | binds |
| B3 | binds |

What follows are binders tested against T2, 人CD38胞外区-His (hCD38-His) (human (homo sapiens), UniProt P28907 43-300) (assay: SPR (Biacore X100), antibody captured by anti-human Fc, human CD38-His as analyte, 25°C).
T2 construct: Recombinant, expressed in HEK293 cells; also called 人CD38-His; not shown: His tag at the C-terminus

| Binder | Kd [nM] |
| --- | --- |
| B1 | 0.151 |
| B2 | 0.0216 |
| B4 | 1.33 |
| B3 | 0.0213 |
